Consider ten molecules from patent publication US9266940 (Novo Nordisk, dated 2016).

Numbered stars: 1 amine (or outer) side, 2 acyl side, 3 side chain; on linkers, the order of the positions; unused ones are H or OH. Square brackets hold non-standard residues; d marks the D form. Side chains are listed from the residue outwards. Ends that are not written are not given here. * marks the point of attachment. Decanoyl(10-(4-HOOC-PhO)) = O=C(O)c1ccc(OCCCCCCCCCC(=O)*)cc1; γGlu = O=C(O)[C@H](CCC(=O)[*:2])N[*:1]; C14 diacid = O=C(O)CCCCCCCCCCCCC(=O)*; AEEA = NCCOCCOCC(=O)O; Aib = CC(C)(N)C(=O)O Some results are limits rather than exact numbers.

One test has as its target T1, human GLP-1 receptor (human, UniProt P43220 24-463).
T1 construct: whole, on cells; Used as purified plasma membranes of the stably transfected BHK cell line, not as intact cells; also called hGLP-1
Description: SPA, displacement of 125I-GLP-1(7-36)NH2 from hGLP-1R BHK membranes, low HSA (0.001%). As for the experimental part: (§1) A shift in the binding affinity, $IC50$, is an indication that the peptide in question binds to albumin, and thereby a prediction of a potential protracted pharmacokinetic profile of the peptide in question in animal models.
(§2) 50 ul (micro liter) HSA ("high albumin" experiment containing 2% HSA), or buffer ("low albumin" experiment containing 0.001% HSA), was added to Optiplate, and 25 ul of test compounds were added. 5-10 ug membrane protein/sample was added (50 ul) corresponding to 0.1-0.2 mg protein/ml (to be preferably optimised for each membrane preparation). SPA-particles (Wheatgerm agglutinin SPA beads, Perkin Elmer, #RPNQ0001) were added in an amount of 0.5 mg/well (50 ul). […] The plates were sealed with PlateSealer and incubated for 120 minutes at 30° C. while shaking. The plates were centrifuged (1500 rpm, 10 min) and counted in Topcounter.
HAEGTFTSDVSSYLEEQK([γGlu-AEEA-AEEA-C14 diacid])ARK([γGlu-AEEA-AEEA-C14 diacid])FIAHLVG (also called 22): the half-maximal inhibitory concentration (IC50) worked out at 9.31 nM.
Molecule HAEGTFTSDVSSYLEEQK([γGlu-AEEA-AEEA-C14 diacid])VRK([γGlu-AEEA-AEEA-C14 diacid])FIAWLVG (also called 30) returned an IC50 of 7.44 nM.
For the molecule HAEGTFTSDVSSYLEEQK([AEEA-AEEA-γGlu-C14 diacid])VRK([AEEA-AEEA-γGlu-C14 diacid])FIAWLVG (also called 27), the IC50 was determined as 10.3 nM.
Same read-out and setting: with HAEGTFTSDVSSYLEK([γGlu-AEEA-AEEA-C14 diacid])QAARK([γGlu-AEEA-AEEA-C14 diacid])FIAHLVG (also called 14) the figure was 1.45 nM; with H[Aib]EGTFTSDVSSYLEK([AEEA-AEEA-γGlu-C14 diacid])QAVRK([AEEA-AEEA-γGlu-C14 diacid])FIAHLVRGRG, 0.12 nM; with HAEGTFTSDVSSYLEGQAARK([AEEA-AEEA-γGlu-Decanoyl(10-(4-HOOC-PhO))])FIEWLVRGK([AEEA-AEEA-γGlu-Decanoyl(10-(4-HOOC-PhO))])GE, 0.5 nM.
With HAEGTFTSDVSSYLEGQAAHK([AEEA-AEEA-γGlu-Decanoyl(10-(4-HOOC-PhO))])FIEWLVRGK([AEEA-AEEA-γGlu-Decanoyl(10-(4-HOOC-PhO))])GE (also called 10), the IC50 stood at 6.49 nM.
For HAEGTFTSDVSSYLEGQAVRK([AEEA-AEEA-γGlu-Decanoyl(10-(4-HOOC-PhO))])FIEWLVRGK([AEEA-AEEA-γGlu-Decanoyl(10-(4-HOOC-PhO))])GQ (also called 12), the IC50 was 0.16 nM.
HAEGTFTSDVSSYLEEQAAHK([AEEA-AEEA-γGlu-Decanoyl(10-(4-HOOC-PhO))])FIEWLVRGK([AEEA-AEEA-γGlu-Decanoyl(10-(4-HOOC-PhO))])GE (also called 21) yielded an IC50 of 1.57 nM.
For the molecule HAEGTFTSDVSSYLEGQAVRK([AEEA-AEEA-γGlu-Decanoyl(10-(4-HOOC-PhO))])FIEWLVQGK([AEEA-AEEA-γGlu-Decanoyl(10-(4-HOOC-PhO))])GE (also called 13), the IC50 turned out to be 0.25 nM.

In a further test the target is T1, human GLP-1 receptor. The test can be described thus: SPA displacement assay; IC50 at 2.0% HSA over IC50 at 0.001% HSA. As for the experimental part:
as §1, §2
On to HAEGTFTSDVSSYLEEQK([γGlu-AEEA-AEEA-C14 diacid])ARK([γGlu-AEEA-AEEA-C14 diacid])FIAHLVG (also called 22), for which the “Ratio [(IC50/nM) high HSA]/[(IC50/nM) low HSA]” value (“Ratio” for short) stood at 87.
In the case of HAEGTFTSDVSSYLEEQK([γGlu-AEEA-AEEA-C14 diacid])VRK([γGlu-AEEA-AEEA-C14 diacid])FIAWLVG (also called 30), the “Ratio” value came out at 134.
On the same count and under the same terms, with HAEGTFTSDVSSYLEEQK([AEEA-AEEA-γGlu-C14 diacid])VRK([AEEA-AEEA-γGlu-C14 diacid])FIAWLVG (also called 27) the figure was 97.
Still for that read-out and setting: under HAEGTFTSDVSSYLEK([γGlu-AEEA-AEEA-C14 diacid])QAARK([γGlu-AEEA-AEEA-C14 diacid])FIAHLVG (also called 14) stands 306; under H[Aib]EGTFTSDVSSYLEK([AEEA-AEEA-γGlu-C14 diacid])QAVRK([AEEA-AEEA-γGlu-C14 diacid])FIAHLVRGRG, 174; under HAEGTFTSDVSSYLEGQAARK([AEEA-AEEA-γGlu-Decanoyl(10-(4-HOOC-PhO))])FIEWLVRGK([AEEA-AEEA-γGlu-Decanoyl(10-(4-HOOC-PhO))])GE, 246.
Regarding HAEGTFTSDVSSYLEGQAAHK([AEEA-AEEA-γGlu-Decanoyl(10-(4-HOOC-PhO))])FIEWLVRGK([AEEA-AEEA-γGlu-Decanoyl(10-(4-HOOC-PhO))])GE (also called 10), the “Ratio” value amounted to 70.
The same measure, in the same setting: under HAEGTFTSDVSSYLEGQAVRK([AEEA-AEEA-γGlu-Decanoyl(10-(4-HOOC-PhO))])FIEWLVRGK([AEEA-AEEA-γGlu-Decanoyl(10-(4-HOOC-PhO))])GQ (also called 12) stands 453; under HAEGTFTSDVSSYLEEQAAHK([AEEA-AEEA-γGlu-Decanoyl(10-(4-HOOC-PhO))])FIEWLVRGK([AEEA-AEEA-γGlu-Decanoyl(10-(4-HOOC-PhO))])GE (also called 21), 163.
The same measure, in the same setting: under HAEGTFTSDVSSYLEGQAVRK([AEEA-AEEA-γGlu-Decanoyl(10-(4-HOOC-PhO))])FIEWLVQGK([AEEA-AEEA-γGlu-Decanoyl(10-(4-HOOC-PhO))])GE (also called 13) stands 804.

The target in another test is T1, human GLP-1 receptor. The test can be described thus: cell-based or functional assay.
For the molecule HAEGTFTSDVSSYLEEQK([γGlu-AEEA-AEEA-C14 diacid])ARK([γGlu-AEEA-AEEA-C14 diacid])FIAHLVG (also called 22), the “EC50/pM (in vitro potency, cAMP formation, AlphaScreen)” value (“EC50/pM” below) turned out to be 1180 pM.
HAEGTFTSDVSSYLEEQK([γGlu-AEEA-AEEA-C14 diacid])VRK([γGlu-AEEA-AEEA-C14 diacid])FIAWLVG (also called 30): the “EC50/pM” value worked out at 3000 pM.
Still for that read-out and setting: with HAEGTFTSDVSSYLEEQK([AEEA-AEEA-γGlu-C14 diacid])VRK([AEEA-AEEA-γGlu-C14 diacid])FIAWLVG (also called 27) the figure was 835 pM; with HAEGTFTSDVSSYLEK([γGlu-AEEA-AEEA-C14 diacid])QAARK([γGlu-AEEA-AEEA-C14 diacid])FIAHLVG (also called 14), 42 pM.
Still for that read-out and setting: with H[Aib]EGTFTSDVSSYLEK([AEEA-AEEA-γGlu-C14 diacid])QAVRK([AEEA-AEEA-γGlu-C14 diacid])FIAHLVRGRG the figure was 9 pM; with HAEGTFTSDVSSYLEGQAARK([AEEA-AEEA-γGlu-Decanoyl(10-(4-HOOC-PhO))])FIEWLVRGK([AEEA-AEEA-γGlu-Decanoyl(10-(4-HOOC-PhO))])GE, 96 pM.
As for HAEGTFTSDVSSYLEGQAAHK([AEEA-AEEA-γGlu-Decanoyl(10-(4-HOOC-PhO))])FIEWLVRGK([AEEA-AEEA-γGlu-Decanoyl(10-(4-HOOC-PhO))])GE (also called 10), the “EC50/pM” value is 214 pM.
As to HAEGTFTSDVSSYLEGQAVRK([AEEA-AEEA-γGlu-Decanoyl(10-(4-HOOC-PhO))])FIEWLVRGK([AEEA-AEEA-γGlu-Decanoyl(10-(4-HOOC-PhO))])GQ (also called 12), the “EC50/pM” value is 41 pM.
Consider HAEGTFTSDVSSYLEEQAAHK([AEEA-AEEA-γGlu-Decanoyl(10-(4-HOOC-PhO))])FIEWLVRGK([AEEA-AEEA-γGlu-Decanoyl(10-(4-HOOC-PhO))])GE (also called 21), for which the “EC50/pM” value stood at 52 pM.
Take HAEGTFTSDVSSYLEGQAVRK([AEEA-AEEA-γGlu-Decanoyl(10-(4-HOOC-PhO))])FIEWLVQGK([AEEA-AEEA-γGlu-Decanoyl(10-(4-HOOC-PhO))])GE (also called 13): the “EC50/pM” value was 79 pM.

A further test addresses T1, human GLP-1 receptor. Description: SPA, displacement of 125I-GLP-1(7-36)NH2 from hGLP-1R BHK membranes, high HSA (2.0%). As for the experimental part:
as §1, §2
For HAEGTFTSDVSSYLEEQK([γGlu-AEEA-AEEA-C14 diacid])ARK([γGlu-AEEA-AEEA-C14 diacid])FIAHLVG (also called 22), the IC50 stood at 812 nM.
Molecule HAEGTFTSDVSSYLEEQK([γGlu-AEEA-AEEA-C14 diacid])VRK([γGlu-AEEA-AEEA-C14 diacid])FIAWLVG (also called 30) came in with an IC50 greater than 1000 nM.
Same read-out and setting: under HAEGTFTSDVSSYLEEQK([AEEA-AEEA-γGlu-C14 diacid])VRK([AEEA-AEEA-γGlu-C14 diacid])FIAWLVG (also called 27) stands greater than 1000 nM; under HAEGTFTSDVSSYLEK([γGlu-AEEA-AEEA-C14 diacid])QAARK([γGlu-AEEA-AEEA-C14 diacid])FIAHLVG (also called 14), 443 nM; under H[Aib]EGTFTSDVSSYLEK([AEEA-AEEA-γGlu-C14 diacid])QAVRK([AEEA-AEEA-γGlu-C14 diacid])FIAHLVRGRG, 21 nM.
As for HAEGTFTSDVSSYLEGQAARK([AEEA-AEEA-γGlu-Decanoyl(10-(4-HOOC-PhO))])FIEWLVRGK([AEEA-AEEA-γGlu-Decanoyl(10-(4-HOOC-PhO))])GE, the IC50 was found to be 123 nM.
Take HAEGTFTSDVSSYLEGQAAHK([AEEA-AEEA-γGlu-Decanoyl(10-(4-HOOC-PhO))])FIEWLVRGK([AEEA-AEEA-γGlu-Decanoyl(10-(4-HOOC-PhO))])GE (also called 10): the IC50 worked out at 452 nM.
Consider HAEGTFTSDVSSYLEGQAVRK([AEEA-AEEA-γGlu-Decanoyl(10-(4-HOOC-PhO))])FIEWLVRGK([AEEA-AEEA-γGlu-Decanoyl(10-(4-HOOC-PhO))])GQ (also called 12), for which the IC50 was determined as 72 nM.
On the same count and under the same terms, with HAEGTFTSDVSSYLEEQAAHK([AEEA-AEEA-γGlu-Decanoyl(10-(4-HOOC-PhO))])FIEWLVRGK([AEEA-AEEA-γGlu-Decanoyl(10-(4-HOOC-PhO))])GE (also called 21) the figure was 256 nM; with HAEGTFTSDVSSYLEGQAVRK([AEEA-AEEA-γGlu-Decanoyl(10-(4-HOOC-PhO))])FIEWLVQGK([AEEA-AEEA-γGlu-Decanoyl(10-(4-HOOC-PhO))])GE (also called 13), 201 nM.
